Values belong to the molecule of their own block, whether it stands above or below them.
How the values were obtained:
[1] = target: human chimeric IL-15 (huIL-15 + huIgHG2 chimera; IL-2SP-N72DIL-15CDS-K322AIgHg2) (human); experiment: non-reducing SDS-PAGE; purified chimeric IL-15 loaded on SDS-PAGE under non-reducing or reducing conditions, Coomassie stain, densitometry of dimer vs. monomer
[2] = target: human chimeric IL-15 (huIL-15 + huIgHG2 chimera; IL-2SP-N72DIL-15CDS-K322AIgHg2) (human); experiment: SEC; analytical size-exclusion HPLC, Zorbax Bio Series GF-250 column, PBS mobile phase, 1 ml/min; 20 µl of 1 μg/ml chimeric IL-15; OVA and BSA as standards
[3] = target: the molecule itself; experiment: non-reducing SDS-PAGE; purified chimeric IL-15 loaded on SDS-PAGE under non-reducing or reducing conditions, Coomassie stain, densitometry of dimer vs. monomer

stoichiometry N [1]: 2 | stoichiometry N [2]: 2
Molecule: human chimeric IL-15 (huIL-15 + huIgHG2 chimera; IL-2SP-N72DIL-15CDS-K322AIgHg2) (Fc fusion)

B1: mouse chimeric IL-15 (mIL-15 + mIgHG2a chimera) (Fc fusion)
chain: GIHVFILGCVSVGLPKTEANWIDVRYDLEKIESLIQSIHIDTTLYTDSDFHPSCKVTAMNCFLLELQVILHEYSNMTLNETVRNVLYLANSTLSSNKNVAESGCKECEELEEKTFTEFLQSFIRIVQMFINTSGSAKTTAPSVYPLAPVCGDTTGSSVTLGCLVKGYFPEPVTLTWNSGSLSSGVHTFPAVLQSDLYTLSSSVTVTSSTWPSQSITCNVAHPASSTKVDKKIEPRGPTIKPCPPCKCPAPNLLGGPSVFIFPPKIKDVLMISLSPIVTCVVVDVSEDDPDVQISWFVNNVEVHTAQTQTHREDYNSTLRVVSALPIQHQDWMSGKEFKCKVNNKDLPAPIERTISKPKGSVRAPQVYVLPPPEEEMTKKQVTLTCMVTDFMPEDIYVEWTNNGKTELNYKNTEPVLDSDGSYFMYSKLRVEKKNWVERNSYSCSVVHEGLHNHHTTKSFSRTPGK
stoichiometry N [3]: 2

— publication PMC8092395, “Development of Stable Chimeric IL-15 for Trans-Presentation by the Antigen Presenting Cells” (Frontiers in Immunology, 2021)
